Holding throughout (experiment): ITC
(Isothermal titration calorimetry measures the heat released or taken up as one component is titrated into another.)

In test [1] the target is T1, C-terminal domain of Scherffelia dubia centrin, wild type (Scherffelia dubia, UniProt Q06827 93-168).
T1 sequence (looked up): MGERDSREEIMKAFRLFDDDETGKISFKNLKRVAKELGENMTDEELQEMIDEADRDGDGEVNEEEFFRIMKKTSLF

In test [2] the target is T1, C-terminal domain of Scherffelia dubia …. The source holds these as a separate data set.
Test [3] has the same target. This is another data set of the same source.
Test [4] shares this target. The source holds these as a separate data set.

Data on two molecules can be found in publication PMC3871271 (FEBS Open Bio, 2013).

Where two headings read alike, the source gives them in different places.

B1: R18-HsSfi1 peptide (peptide)
peptide: Ac-SQHNRQLLRGALRRWK-NH2
Consider B1, for which the Ka came out at 4.5e+06 M⁻¹ in test [1] and 1.23e+06 M⁻¹ in test [2]. The dH was -31.5 kcal/mol in test [1] and -37.1 kcal/mol in test [2].

B2: P17-XPC peptide (peptide)
peptide: Ac-NWKLLAKGLLIRERLKR-NH2
B2: the Ka was 3.02e+07 M⁻¹ in test [1], 5.94e+07 M⁻¹ in test [3] and 7.32e+07 M⁻¹ in test [4]. Also, the dH in test [1] is -33.8 kcal/mol; in test [3] it was -23.4 kcal/mol; in test [2] it was -40.6 kcal/mol; in test [4], -23.4 kcal/mol.
